This note sets out measurements from patent US20180346565A1 (AbbVie / Abbott, published 2018).

The assay deals with T1, DLL3 purified protein (human, UniProt Q9NYJ7 27-492, limits assumed).
T1 construct: also called purified DLL3; immobilized human DLL3
T1 sequence (looked up): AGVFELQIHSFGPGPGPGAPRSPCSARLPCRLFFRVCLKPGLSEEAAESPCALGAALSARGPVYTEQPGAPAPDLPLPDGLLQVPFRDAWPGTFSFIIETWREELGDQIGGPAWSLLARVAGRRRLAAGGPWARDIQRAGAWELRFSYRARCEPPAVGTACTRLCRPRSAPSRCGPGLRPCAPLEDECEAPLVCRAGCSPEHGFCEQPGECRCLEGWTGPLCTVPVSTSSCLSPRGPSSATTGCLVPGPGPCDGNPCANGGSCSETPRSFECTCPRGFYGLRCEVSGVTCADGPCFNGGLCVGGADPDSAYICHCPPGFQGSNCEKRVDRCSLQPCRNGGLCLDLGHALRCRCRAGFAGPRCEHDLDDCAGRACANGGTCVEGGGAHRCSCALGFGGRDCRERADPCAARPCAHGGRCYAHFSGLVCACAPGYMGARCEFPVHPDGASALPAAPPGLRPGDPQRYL
Kind of assay: ELISA, plate coated with 1 ug/ml purified DLL3, serially diluted antibody, detection with HRP-conjugated anti-human IgG1 reporter mAb, TMB, OD450. An excerpt: Site-specific anti-DLL3 antibodies fabricated as set forth in the previous Examples were screened by an ELISA assay to determine whether they bound to DLL3 purified protein. The parental native antibody was used as a control and run alongside the site-specific anti-DLL3 antibody. Binding of the antibodies to DLL3 was detected with a monoclonal antibody (mAb) reporter antibody conjugated to horseradish peroxidase (HRP), (Southern Biotech, Cat. No. SB9052-05), which binds to an epitope present on human IgG1 molecules. HRP reacts with its substrate tetramethyl benzidine (TMB). The amount of […] TMB is directly proportional to the amount of test antibody bound to DLL3.
ELISA plates were coated with 1 μg/ml purified DLL3 in PBS and incubated overnight at 4° C. Excess protein was removed by washing and the wells were blocked with 2% (w/v) BSA in PBS with 0.05% tween 20 (PBST), 200 μL/well for 1 hour at room temperature. After washing, 100 μL/well serially diluted antibody or ADC were added in PBST for 1 hour at room temperature. The plates were washed again and 0.5 ug/ml of 100 μL/well of the appropriate reporter antibody was added in PBST for 1 hour at room temperature. […] The samples were then analyzed by spectrophotometer at OD 450.
(ELISA stands for enzyme-linked immunosorbent assay.)

B1: hSC16.56 (antibody, human IgG1, kappa, V domains shown)
VH: QVQLVQSGAEVKKPGASVKVSCKASGYTFTNYGMNWVRQAPGQGLEWMGWINTYTGEPTYADDFKGRVTMTTDTSTSTAYMELRSLRSDDTAVYYCARIGDSSPSDYWGQGTLVTVSS
VL: EIVMTQSPATLSVSPGERATLSCKASQSVSNDVVWYQQKPGQAPRLLIYYASNRYTGIPARFSGSGSGTEFTLTISSLQSEDFAVYYCQQDYTSPWTFGQGTKLEIKR
notes: Native human IgG1/kappa; also called humanized SC16.56; humanized anti-DLL3 antibody hSC16.56
Regarding B1, the “EC50 (read off the curve)” value is roughly 10 ng/mL.

As a reminder, the EC50 (read off the curve) is the concentration that produces a half-maximal response.
